Measurements taken from paper PMC4761961, “In silico selection of an aptamer to estrogen receptor alpha using computational docking employing estrogen response elements as aptamer-alike molecules”.

B1: ERaptR14 (structured_RNA)
RNA: CCAGUCAGUCUGAUUAU
B2: ERaptR5 (structured_RNA)
RNA: AAGGUCACGGUGGCCAC
B3: ERaptR6 (structured_RNA)
RNA: UAGGUCAGUAAGACCUC
B4: ERaptR9 (structured_RNA)
RNA: UGGUCAGGCUGGUCUCA
B5: ERaptR16 (structured_RNA)
RNA: UUGGUCAGGCUGAUCUC
B6: ERaptR7 (structured_RNA)
RNA: CGGGUCACGAUGCCCUA
B7: ERaptR17 (structured_RNA)
RNA: UUGGUCAAGCUGCCCUC
B8: ERaptR3 (structured_RNA)
RNA: AGGGUCAGGGCCACCUG
B9: ERaptR13 (structured_RNA)
RNA: CAGGUCAAGGCGAUCUU
B10: ERaptR8 (structured_RNA)
RNA: CGGGUCAGGGUGACCUC
B11: ERaptR11 (structured_RNA)
RNA: AGGGUCAUGGUGACCCU
B12: ERaptR1 (structured_RNA)
RNA: GAGGUCACUGAGACCAU
B13: ERaptR15 (structured_RNA)
RNA: GCGGUCACCGUCACCUC
B14: ERaptR12 (structured_RNA)
RNA: GGGGUCAAGGUCACCGC
B15: ERaptR2 (structured_RNA)
RNA: CCAGGUCACAGUGACCUG
B16: ERaptR18 (structured_RNA)
RNA: GGGGUCAGCUGUGCCCCG
B17: ERaptR4 (structured_RNA)
RNA: GGGGUCAAGGUGACCCC

Biological target: T1, Estrogen receptor alpha (ERα) (human, UniProt P03372 1-595)
T1 sequence (P03372 whole entry): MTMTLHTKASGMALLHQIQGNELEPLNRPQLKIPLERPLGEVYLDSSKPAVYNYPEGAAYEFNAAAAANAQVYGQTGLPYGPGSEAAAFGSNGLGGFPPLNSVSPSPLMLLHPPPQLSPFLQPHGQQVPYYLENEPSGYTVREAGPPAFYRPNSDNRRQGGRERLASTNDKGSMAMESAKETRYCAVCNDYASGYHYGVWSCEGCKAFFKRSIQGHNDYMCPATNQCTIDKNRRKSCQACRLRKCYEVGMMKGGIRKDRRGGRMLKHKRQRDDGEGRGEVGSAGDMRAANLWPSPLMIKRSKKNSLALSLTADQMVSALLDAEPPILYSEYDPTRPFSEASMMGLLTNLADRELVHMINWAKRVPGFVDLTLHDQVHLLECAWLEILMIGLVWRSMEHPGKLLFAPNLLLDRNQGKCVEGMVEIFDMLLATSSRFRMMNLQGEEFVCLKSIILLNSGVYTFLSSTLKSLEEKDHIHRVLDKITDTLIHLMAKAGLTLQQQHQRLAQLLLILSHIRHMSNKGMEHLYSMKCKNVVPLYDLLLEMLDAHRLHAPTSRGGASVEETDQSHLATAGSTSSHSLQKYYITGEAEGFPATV
Test: ITC; ITC: 10 mM Tris-HCl pH 8.0, 25 °C, 1 µM ERα in cell, 10 µM RNA in syringe; ELISA: 100 nM biotinylated ERaptR4, 2 h; western blot: 1 µM ERaptR4
Conditions: chain copies: 2; hairpin

Q: B1 was tested. Which Ka did it give?
A: The Ka was 7.42e+07 M⁻¹.

Q: Which Ka does the source give for B2 here?
A: Its Ka is 6.82e+07 M⁻¹.

Q: B3 was tested. Which Ka did it give?
A: The Ka was 9.46e+07 M⁻¹.

Q: With B4 as the binder, how does the Ka read?
A: Its Ka is 9.46e+07 M⁻¹.

Q: Which Ka does the source give for B5 here?
A: Its Ka is 9.4e+07 M⁻¹.

Q: Which Ka does the source give for B6 here?
A: The Ka was 4.82e+07 M⁻¹.

Q: For B7, which Ka is on record?
A: Its Ka is 1.26e+08 M⁻¹.

Q: For B8, which Ka is on record?
A: The Ka was 5.24e+07 M⁻¹.

Q: How did the Ka turn out when B9 was run?
A: Its Ka is 8.96e+07 M⁻¹.

Q: With B10 as the binder, how does the Ka read?
A: Its Ka is 8.88e+07 M⁻¹.

Q: For B11, which Ka is on record?
A: The Ka was 8.02e+07 M⁻¹.

Q: Which Ka does the source give for B12 here?
A: Its Ka is 9.2e+07 M⁻¹.

Q: Which Ka does the source give for B13 here?
A: Its Ka is 9.25e+07 M⁻¹.

Q: For B14, which Ka is on record?
A: The Ka was 8.2e+07 M⁻¹.

Q: How did the Ka turn out when B15 was run?
A: The Ka was 7.6e+07 M⁻¹.

Q: Which Ka does the source give for B16 here?
A: The Ka was 9.91e+07 M⁻¹.

Biological target: T1, Estrogen receptor alpha (ERα)
Test: as above
Conditions: chain copies: 2; hairpin
Remark: another data set of the same source

Q: How did the Ka turn out when B17 was run?
A: The Ka was 1.02e+08 M⁻¹.
